Laboratory results taken from publication PMC10955726, “DNA‐dependent phase separation by human SSB2 (NABP1/OBFC2A) protein points to adaptations to eukaryotic genome repair processes”.

How the values were obtained:
[1] = molecular target: T1, hSSB2 (C-terminally His-tagged) (Homo sapiens, UniProt Q96AH0 1-204); assay: fluorescence anisotropy; no MgCl2; Hill n 3.3; Anisotropy: standard LLPS buffer without MgCl2 (50 mM KCl standard), 25 C, 10 nM probe; EMSA: standard LLPS buffer (50 mM KCl, 10 mM MgCl2), 50 nM probe, 1% agarose; buffer species and pH not in the material; details: protein: recombinant; tags: C-terminal His; label: 3'-fluorescein; single strand
T1 sequence (Q96AH0 whole entry): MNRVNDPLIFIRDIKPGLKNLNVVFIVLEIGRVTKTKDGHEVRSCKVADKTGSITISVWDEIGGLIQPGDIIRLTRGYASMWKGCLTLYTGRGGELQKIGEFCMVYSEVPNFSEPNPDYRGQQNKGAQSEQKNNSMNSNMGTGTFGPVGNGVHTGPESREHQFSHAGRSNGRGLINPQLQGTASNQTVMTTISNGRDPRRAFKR

[2] = molecular target: T1, hSSB2 (C-terminally His-tagged); assay: fluorescence anisotropy; no MgCl2; Hill n 2.7; Anisotropy: standard LLPS buffer without MgCl2 (50 mM KCl standard), 25 C, 10 nM probe; EMSA: standard LLPS buffer (50 mM KCl, 10 mM MgCl2), 50 nM probe, 1% agarose; buffer species and pH not in the material; details: protein: recombinant; tags: C-terminal His; label: 3'-fluorescein; single strand
hSSB2-dIDR = hSSB2-dIDR (Homo sapiens, UniProt Q96AH0 1-100); assay: fluorescence anisotropy; no MgCl2; Hill n 2.4; Anisotropy: standard LLPS buffer without MgCl2 (50 mM KCl standard), 25 C, 10 nM probe; EMSA: standard LLPS buffer (50 mM KCl, 10 mM MgCl2), 50 nM probe, 1% agarose; buffer species and pH not in the material; details: protein: recombinant; tags: His (terminus not clearly stated); label: 3'-fluorescein; single strand
Sequence of hSSB2-dIDR (Q96AH0 1-100): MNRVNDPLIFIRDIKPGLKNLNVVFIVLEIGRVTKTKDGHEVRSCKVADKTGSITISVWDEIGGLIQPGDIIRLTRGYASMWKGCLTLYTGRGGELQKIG

[3] = molecular target: T1, hSSB2 (C-terminally His-tagged); assay: fluorescence anisotropy; no MgCl2; Hill n 1.1; Anisotropy: standard LLPS buffer without MgCl2 (50 mM KCl standard), 25 C, 10 nM probe; EMSA: standard LLPS buffer (50 mM KCl, 10 mM MgCl2), 50 nM probe, 1% agarose; buffer species and pH not in the material; details: protein: recombinant; tags: C-terminal His; label: 3'-fluorescein; single strand

AUUUUUGCGGAUGGCUUAGAGCUUAAUUGCGCAACG (ssRNA) [ss36 RNA] was tested, and the Kd [1] was 870 ± 170 nM.

With ATTTTTGCGGATGGCTTAGAGCTTAATTGCGCAACG (ssDNA) [ss36 DNA] the Kd [2] was 530 ± 20 nM.

B1: ss54 DNA (ssDNA)
DNA: TCCTTTTGATAAGAGGTCATTTTTGCGGATGGCTTAGAGCTTAATTGCGCAACG
For B1, the Kd (hSSB2-dIDR) was 850 ± 20 nM and the Kd [3] was 87 ± 7 nM.
